US20170224836A1 (Novartis, published 2017)
Read-outs that look alike come from different tables or passages of the source.

T1: human CDH6 on cells (human, UniProt P55285 54-790)
T1 sequence: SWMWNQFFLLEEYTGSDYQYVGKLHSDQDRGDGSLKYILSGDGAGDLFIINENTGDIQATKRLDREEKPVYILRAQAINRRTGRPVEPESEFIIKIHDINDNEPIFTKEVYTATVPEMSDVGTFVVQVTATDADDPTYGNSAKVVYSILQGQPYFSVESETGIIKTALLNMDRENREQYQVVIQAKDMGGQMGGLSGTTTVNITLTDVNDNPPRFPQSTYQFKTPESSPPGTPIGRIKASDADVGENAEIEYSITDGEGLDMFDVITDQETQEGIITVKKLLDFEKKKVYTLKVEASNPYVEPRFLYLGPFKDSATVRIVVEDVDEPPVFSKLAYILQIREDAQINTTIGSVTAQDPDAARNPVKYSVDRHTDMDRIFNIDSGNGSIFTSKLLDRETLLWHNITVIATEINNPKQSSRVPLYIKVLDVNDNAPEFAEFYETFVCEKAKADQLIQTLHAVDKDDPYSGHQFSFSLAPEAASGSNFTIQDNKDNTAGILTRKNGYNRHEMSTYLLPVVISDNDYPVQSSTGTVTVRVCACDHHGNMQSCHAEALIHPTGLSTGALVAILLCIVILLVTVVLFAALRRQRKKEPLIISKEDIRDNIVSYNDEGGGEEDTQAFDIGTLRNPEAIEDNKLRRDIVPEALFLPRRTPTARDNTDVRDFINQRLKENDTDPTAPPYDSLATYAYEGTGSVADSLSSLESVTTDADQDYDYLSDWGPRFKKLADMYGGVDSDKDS

T2: hCDH6aa54-615 APPavi (human, UniProt P55285 54-615)
T2 sequence: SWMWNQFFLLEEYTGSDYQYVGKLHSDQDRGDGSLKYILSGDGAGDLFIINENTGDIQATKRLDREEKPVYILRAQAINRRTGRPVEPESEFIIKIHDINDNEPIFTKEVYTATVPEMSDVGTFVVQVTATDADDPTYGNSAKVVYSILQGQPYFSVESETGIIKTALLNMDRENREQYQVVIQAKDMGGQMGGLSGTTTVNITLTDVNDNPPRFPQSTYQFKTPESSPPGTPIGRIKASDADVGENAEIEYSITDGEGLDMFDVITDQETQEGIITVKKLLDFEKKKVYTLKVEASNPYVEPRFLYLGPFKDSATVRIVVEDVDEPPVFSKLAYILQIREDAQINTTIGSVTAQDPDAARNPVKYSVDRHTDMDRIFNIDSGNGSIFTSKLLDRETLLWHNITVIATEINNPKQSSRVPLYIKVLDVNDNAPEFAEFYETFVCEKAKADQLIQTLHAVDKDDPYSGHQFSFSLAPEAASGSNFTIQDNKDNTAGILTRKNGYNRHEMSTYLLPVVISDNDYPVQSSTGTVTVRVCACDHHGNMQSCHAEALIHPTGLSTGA


Legend:
[1] = biological target: T1, human CDH6 on cells; test: FACS on OVCAR3 cells, histogram table
[2] = biological target: T1, human CDH6 on cells; test: FACS on OVCAR8-CDH6+ cells, histogram table
[3] = biological target: T2, hCDH6aa54-615 APPavi; test: SPR binning
[4] = biological target: T2, hCDH6aa54-615 APPavi; test: SPR binning; remark: listed apart in the source
[5] = biological target: T2, hCDH6aa54-615 APPavi; test: SPR binning; remark: listed apart in the source
[6] = biological target: T2, hCDH6aa54-615 APPavi; test: SPR binning; remark: listed apart in the source
[7] = biological target: T2, hCDH6aa54-615 APPavi; test: SPR binning; remark: listed apart in the source
[8] = biological target: T2, hCDH6aa54-615 APPavi; test: SPR binning; remark: listed apart in the source
[9] = biological target: T2, hCDH6aa54-615 APPavi; test: SPR binning; remark: listed apart in the source

Row | Molecule | Geom. Mean Fluorescence [1] | Geom. Mean Fluorescence [2] | response of secondary antibody on primary antibody-CDH6 complex [3] | response of secondary antibody on primary antibody-CDH6 complex [4] | response of secondary antibody on primary antibody-CDH6 complex [5] | response of secondary antibody on primary antibody-CDH6 complex [6] | response of secondary antibody on primary antibody-CDH6 complex [7] | response of secondary antibody on primary antibody-CDH6 complex [8] | response of secondary antibody on primary antibody-CDH6 complex [9]
1 | NOV1126 (antibody, human IgG1, lambda, V domains shown) VH: EVQLLESGGGLVQPGGSLRLSCAASGFTFSDHAIDWVRQAPGKGLEWVSVIAGSGSITYYADSVKGRFTISRDNSKNTLYLQMNSLRAEDTAVYYCARDTGVYREYMDVWGQGTLVTVSS VL: SYELTQPLSVSVALGQTARITCSGDAIGTKFAHWYQQKPGQAPVLVIYYDHERPSGIPERFSGSNSGNTATLTISRAQAGDEADYYCYSRASSNLVFGGGTKLTVLG |  |  | 18.7 | 36.9 | 26.7 | 61.6 | 8.59 | 56.6 | 30.1
2 | NOV0719 (antibody, human IgG1, kappa, V domains shown) VH: QVQLLESGGGLVQPGGSLRLSCAASGFTFSSHWVHWVRQAPGKGLEWVSVISYMGSSTYYADSVKGRFTISRDNSKNTLYLQMNSLRAEDTAVYYCARGSYDMAFDVWGQGTLVTVSS VL: DIQMTQSPSSLSASVGDRVTITCRASQSIVSYLNWYQQKPGKAPKLLIYDASSLQSGVPSRFSGSGSGTDFTLTISSLQPEDFATYYCQQSGSHSITFGQGTKVEIKR |  |  | 13.5 | 16.1 | 11.1 | -2.36 | 25.4 | 46.9 | 20.7
3 | NOV0692 (antibody, human IgG1, lambda, V domains shown) VH: QVQLVESGGGLVKPGGSLRLSCAASGFTFSRYWMDWVRQAPGKGLEWVGRIKSKANGGITDYAAPVKGRFTISRDDSKNTLYLQMNSLKTEDTAVYYCARGMTFLGIWGQGTLVTVSS VL: DIELTQPPSVSVSPGQTASITCSGDSIGSKYAQWYQQKPGQAPVLVIYYNSERPSGIPERFSGSNSGNTATLTISGTQAEDEADYYCQSWDGQSTIRVFGGGTKLTVLG |  |  | -2.84 | 17.9 | 14.1 | 35.5 | 7.83 |  | 23.2

Further lines, results first:

Row | Geom. Mean Fluorescence [1] | Geom. Mean Fluorescence [2] | response of secondary antibody on primary antibody-CDH6 complex [3] | response of secondary antibody on primary antibody-CDH6 complex [4] | response of secondary antibody on primary antibody-CDH6 complex [5] | response of secondary antibody on primary antibody-CDH6 complex [6] | response of secondary antibody on primary antibody-CDH6 complex [7] | response of secondary antibody on primary antibody-CDH6 complex [8] | response of secondary antibody on primary antibody-CDH6 complex [9] | Molecule
4 | 60.4 | 56.5 |  |  |  |  |  |  |  | control IgG-sulfo-SPDB-DM4 (antibody)
5 |  |  | 25.4 | 30.9 | 22.4 | 51.5 | 16.5 | 36.7 | 17.8 | NOV1127 (antibody, human IgG1, kappa, V domains shown) VH: QVQLQQSGPGLVKPSQTLSLTCAISGDSVSSQSAAWNWIRQSPSRGLEWLGRIYYRSKWYNDYAVSVKSRITINPDTSKNQFSLQLNSVTPEDTAVYYCARERSYRDYFDYWGQGTLVTVSS VL: DIQMTQSPSSLSASVGDRVTITCRASQGIFTYLNWYQQKPGKAPKLLIYAASTLQSGVPSRFSGSGSGTDFTLTISSLQPEDFATYYCQQYYSTSLTFGQGTKVEIKR
6 |  |  | 17.9 | 17.8 | 14.3 | 33.6 | 23.7 | 39.3 | 1.08 | NOV1132 (antibody, human IgG1, lambda, V domains shown) VH: QVQLQQSGPGLVKPSQTLSLTCAISGDSVSSQSAGWNWIRQSPSRGLEWLGRIYYRSKWYNDYAVSVKSRITINPDTSKNQFSLQLNSVTPEDTAVYYCAREKYTVSFYDFFDYWGQGTLVTVSS VL: SYELTQPLSVSVALGQTARITCSGDNIGSMTAHWYQQKPGQAPVLVIYDKNERPSGIPERFSGSNSGNTATLTISRAQAGDEADYYCQSWDDSYTSVVFGGGTKLTVLG
